The source of these data is the supplement of paper PMC12764529.

± gives the half width of the 95% confidence interval.

Data set [1] is described as follows: folding stability dG unfold from trypsin proteolysis; higher = more stable. In a few lines: (§1)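 Designed mini-proteins with no cysteine and under 80 residues were kept only if AlphaFold2 dimer inter-PAE was above 15. In a PA-tagged cDNA display construct, they were digested with trypsin and chymotrypsin and then sequenced. K50 was inferred by Bayesian fitting of counts, and unfolding free energy was derived per protease or combined against a sequence-predicted unfolded-state K50 and a shared folded-state K50.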

The nature of data set [2]: folding stability dG unfold (combined trypsin and chymotrypsin); higher = more stable. The procedure, abridged: as §1
Data set [3] is described as follows: folding stability dG unfold from chymotrypsin proteolysis; higher = more stable. The procedure, abridged: as §1

Regarding “SAGGSAGGSTIRIRVKTREEAERLAKLIPGARITYDEETKEFYLEIRLPPAPPPSLEELKAALSAGGSAGGS [r20_191_TrROS_Hall]”, the “folding stability dG unfold” value in data set [1] was 3.62 ± 0.062 kcal/mol; in data set [2], 2.84 ± 0.058 kcal/mol; in data set [3], 1.96 ± 0.038 kcal/mol.
“SAGGSAGGSTITITTVIEKDGELYVIEAKIEVTEVYYDKKTKKKVKVKVKIEIKIEKVPLEDLSAGGSAGGS [r12_809_TrROS_Hall]”: the “folding stability dG unfold” value amounted to 2.96 ± 0.56 kcal/mol in data set [1], 3.07 ± 0.45 kcal/mol in data set [2] and 3.28 ± 0.23 kcal/mol in data set [3].
The like results for “SAGGSAGGSTPELLKKLPPGAKVEVETRLVTNEDGSVYKVVKIKIVDKKTNKTLELELVVKLPSAGGSAGGS [r12_892_TrROS_Hall]” were, in that order, 2.13 ± 0.041 kcal/mol, 1.96 ± 0.07 kcal/mol and 1.65 ± 0.052 kcal/mol.
As to “SAGGSAGGSTPMSVEEIVERIKEEKRKENPNETVEIEFTAELKGGPEGAPEGIYPVKIKVPPGKSAGGSAGG [r6_79_JUSTAS]”, the “folding stability dG unfold” value in data set [1] was 0.05 ± 0.051 kcal/mol; in data set [2], 0.208 ± 0.12 kcal/mol; in data set [3] it was 0.489 ± 0.071 kcal/mol.
“SAGGSAGGSTVEEIADFFKQQGFTDAEINVMPPPNGRRYVTVRFEMKEPNGNKHKMNFSIWIPSAGGSAGGS [r12_246_TrROS]”: the “folding stability dG unfold” value was 2.53 ± 0.16 kcal/mol in data set [1], 2.31 ± 0.34 kcal/mol in data set [2] and 1.99 ± 0.16 kcal/mol in data set [3].
The like results for “SAGGSAGGSVLVIDSPEQIKKAIKEFKDNGAKSIHIRGPGRYWVIQIDPKEPKVKVERVPLGQSAGGSAGGS [r12_368_TrROS]” were, in that order, 0.639 ± 0.096 kcal/mol, 0.643 ± 0.16 kcal/mol and 0.674 ± 0.17 kcal/mol.
The like results for “SAGGSAGGSVPLELELTFKLENGSFIVVKAKIEFNPETPEFKVEVLSVEIFLEPEGKIVSDEDFSAGGSAGG [r6_864_TrMRF]” were, in that order, 1.43 ± 0.087 kcal/mol, 2.44 ± 0.29 kcal/mol and 3.08 ± 0.085 kcal/mol.
For the sequence “SAGGSAGGSWDRIKDALRKYGFPPENVKIEFETYPNGNMNVMIRHNGEQIPRNRINKAIQELMSAGGSAGGS [r12_175_TrROS]”, the figures for the “folding stability dG unfold” value in data set [1], in data set [2] and in data set [3] were 1.27 ± 0.035 kcal/mol, 1.54 ± 0.22 kcal/mol and 1.46 ± 0.096 kcal/mol, respectively.
Take “SAGGSAGGSWFIRVEYKRPNGQPKTLQIPVPRDQLKKMSIDEIKDRAENLGLPPNVKIEWYPFSAGGSAGGS [r12_742_TrROS]”: the results for the “folding stability dG unfold” value in data set [1], in data set [2] and in data set [3] were 1.04 ± 0.032 kcal/mol, 1.55 ± 0.056 kcal/mol and 1.78 ± 0.061 kcal/mol, respectively.
On to “SAGGSAGGSWIILIHWPNGKEIPIFFKSPEEANEIAEEIKKIFQEKGMEPVSVEIYPIKPGQMSAGGSAGGS [r12_301_TrROS]”, for which the “folding stability dG unfold” value in data set [1] came to 2.47 ± 0.086 kcal/mol; in data set [2], 2.32 ± 0.21 kcal/mol; in data set [3], 2.26 ± 0.071 kcal/mol.
For the sequence “SAGGSAGGSWKIVEIEVQRFPDGMYMVEIRFPDHGMPVTVHIDPPKNKITIYFPNGRSIEIPFSAGGSAGGS [r12_88_TrROS]”, the “folding stability dG unfold” value in data set [1] stood at 3.26 ± 0.11 kcal/mol; in data set [2] it was 3.99 ± 0.12 kcal/mol; in data set [3], 4.22 ± 0.089 kcal/mol.
Take “SAGGSAGGSWKPIPYKIKMTDGDGEKHEFPVQIWVAPEDGWVFIDFPNGHPFWIPANNIKIEPSAGGSAGGS [r12_256_TrROS]”: the “folding stability dG unfold” value in data set [1] worked out at 0.66 ± 0.062 kcal/mol; in data set [2], 1.4 ± 0.13 kcal/mol; in data set [3], 1.88 ± 0.12 kcal/mol.
For the sequence “SAGGSAGGSWVRDADGKPIPFKIDSVETKEENNPNGNRYYEIEARFPDNGKEFKATIPADDIKSAGGSAGGS [r12_823_TrROS]”, the “folding stability dG unfold” value was -0.551 ± 0.26 kcal/mol in data set [1], 0.248 ± 0.11 kcal/mol in data set [2] and 0.526 ± 0.2 kcal/mol in data set [3].
As for “SAGGSAGGSYKIDKIEVQPPPGGYYQATIEVEQVDPENGNPQRQEQEIPVPANDPKQIKDFLKSAGGSAGGS [r12_691_TrROS]”, the “folding stability dG unfold” value in data set [1] is -0.523 ± 0.19 kcal/mol; in data set [2], 0.174 ± 0.22 kcal/mol; in data set [3], 0.379 ± 0.16 kcal/mol.
The like results for “SAGGSAGGSYTVETSPVPPGGLLKTYTSPDGVVTTTLYSPDGTVGETTTTPVPPVVPPDPAAAASAGGSAGG [r6_239_JUSTAS]” were, in that order, -0.067 ± 0.075 kcal/mol, 0.921 ± 0.11 kcal/mol and 1.33 ± 0.053 kcal/mol.
The like results for “SAGGSAGGSYYPIEDPNGMKIWVEPDPDNGMYRIRIQFPEGKKVERTFPPGMPLDDIPIKIKDSAGGSAGGS [r12_261_TrROS]” were, in that order, 0.688 ± 0.094 kcal/mol, 0.434 ± 0.24 kcal/mol and -0.0445 ± 0.38 kcal/mol.
Regarding “SAGGSAGGTAEQIREIVEQLFRKRGMEPKKIEIKRVERNGDKVTIEVEWRWDNGRKRPRNIQIPSAGGSAGG [r6_841_TrROS]”, the “folding stability dG unfold” value worked out at 0.722 ± 0.17 kcal/mol in data set [1], 1.18 ± 0.17 kcal/mol in data set [2] and 1.66 ± 0.12 kcal/mol in data set [3].
Take “SAGGSAGGTFEFFFPDGLYFTVEFRIVEMHPNPGNGQMHMRMEATIKIIPLPPPPPPPKDPGDKSAGGSAGG [r6_939_TrROS]”: the “folding stability dG unfold” value turned out to be 2.71 ± 0.087 kcal/mol in data set [1], 3.83 ± 0.2 kcal/mol in data set [2] and 4.3 ± 0.12 kcal/mol in data set [3].
The like results for “SAGGSAGGTIIIEVDTREDALEAARALAEALLPPGYRVEIVSVEEVDGRVYVAIEVRPVPEEELSAGGSAGG [r6_72_TrROS_Hall]” were, in that order, 2.43 ± 0.12 kcal/mol, 3.17 ± 0.12 kcal/mol and 3.26 ± 0.078 kcal/mol.
The like results for “SAGGSAGGTIPSDYSVKELKVGGKKYVIVRYPDGIVELYSVEGNKKTLLRTVDTDPNASVSISGSAGGSAGG [r6_476_JUSTAS]” were, in that order, 1.73 ± 0.044 kcal/mol, 2.38 ± 0.097 kcal/mol and 2.67 ± 0.04 kcal/mol.
The like results for “SAGGSAGGTLKELIDNITRVDPENGKQRMRIPGGAEIEINPEEGQIKIRYYHPGKPQEITLPLPSAGGSAGG [r6_793_TrROS]” were, in that order, 0.46 ± 0.25 kcal/mol, 0.651 ± 0.31 kcal/mol and 0.776 ± 0.24 kcal/mol.
Turning to “SAGGSAGGVISEEEIEAKAEEAKAEAIAAGLESKEVTITSPSGKVYKITVDVNSITIEKSPAAGSAGGSAGG [r6_270_JUSTAS]”, the “folding stability dG unfold” value is 0.879 ± 0.088 kcal/mol in data set [1], 0.832 ± 0.16 kcal/mol in data set [2] and 0.743 ± 0.088 kcal/mol in data set [3].
As for “SAGGSAGGVLRMVRRALKNGKNRPIVIYVPEPEQRNFIKWLKDEWPGIKIKVVPPDQMPPNQIISAGGSAGG [r6_87_TrROS]”, the “folding stability dG unfold” value was determined as 1.42 ± 0.033 kcal/mol in data set [1], 1.46 ± 0.094 kcal/mol in data set [2] and 1.31 ± 0.068 kcal/mol in data set [3].
“SAGGSAGGVVLEVEIPYESEEEAREKAEEVLKELGLPESAKITKIEFYPGPGEKKSVKVYIKLESAGGSAGG [r6_284_JUSTAS]”: the “folding stability dG unfold” value in data set [1] was found to be 1.92 ± 0.06 kcal/mol; in data set [2] it was 1.83 ± 0.059 kcal/mol; in data set [3], 1.73 ± 0.018 kcal/mol.
The like results for “SAGGSAGGWIPPEMARNIAKTLRDKGWPVEDIEVEREPNGWVTVDVDIQYPDGKKRKYPIQIPYSAGGSAGG [r6_762_TrROS]” were, in that order, -0.439 ± 0.22 kcal/mol, 0.0547 ± 0.17 kcal/mol and 0.226 ± 0.23 kcal/mol.
Taken in the same sequence, the figures for “SAGGSAGGWITPDAAKEFADKWGFDDVNVEVLDVDPNNNYVRVKVTARNPKNGNERPIGEFWFPSAGGSAGG [r6_699_TrROS]” were 0.585 ± 0.056 kcal/mol, 1.2 ± 0.066 kcal/mol and 1.46 ± 0.045 kcal/mol.
Taken in the same sequence, the figures for “SAGGSAGGWREIKIYVPPGMPLEEIKDLIKEFFPGYKVEIDEIEREDNYVKATIRIQPLPPGDFSAGGSAGG [r6_623_TrROS]” were 3.08 ± 0.092 kcal/mol, 2.96 ± 0.071 kcal/mol and 2.81 ± 0.04 kcal/mol.
Consider “SAGGSAGGWRIKIMPMGGKKKKIPIDSPEEIIDKIQKEAKEDGLPGNVRITVEYNGQKRTFTIRSAGGSAGG [r6_532_TrROS]”, for which the “folding stability dG unfold” value in data set [1] was 1.41 ± 0.16 kcal/mol; in data set [2], 0.658 ± 0.2 kcal/mol; in data set [3], -0.203 ± 0.6 kcal/mol.
The like results for “SAGGSAGIKAVLNLGDKPVLVLIEPLPDGSFPVIAIFADDGSKVEKVIPASDIGELLSLDPDKLTFSAGGSA [r15_629_TrMRF]” were, in that order, 0.859 ± 0.035 kcal/mol, 0.6 ± 0.18 kcal/mol and 0.0558 ± 0.26 kcal/mol.
For the sequence “SAGGSAGKNKPFPLPILIEAHPDDPEEAAERLKAELEALFPGPIKVEIVEVDPEKGIITAIVTVDGSAGGSA [r15_1024_TrMRF]”, the “folding stability dG unfold” value in data set [1] amounted to 0.985 ± 0.038 kcal/mol; in data set [2] it was 1.31 ± 0.096 kcal/mol; in data set [3], 1.58 ± 0.073 kcal/mol.
For “SAGGSAGKPVLVRVKLRLEFPGTGELAEAEVVVEADSIEDALDRVLKELTLPDFKAEVLDVKAIPLSAGGSA [r2_320_TrMRF]”, the “folding stability dG unfold” value was 2.1 ± 0.11 kcal/mol in data set [1], 2.16 ± 0.13 kcal/mol in data set [2] and 2.03 ± 0.029 kcal/mol in data set [3].
The like results for “SAGGSAGMPLVTAPVTRDPNSDVVTLTVYDPRTGETHTYTSPGSVEEAVEAFREATGLPISEVVLESAGGSA [r15_101_JUSTAS]” were, in that order, 1.45 ± 0.078 kcal/mol, 1.51 ± 0.099 kcal/mol and 1.44 ± 0.057 kcal/mol.
The like results for “SAGGSAGMPPDEPVVKTTVIPTSTAVKDAAGNPLTPEELAAAVKAAYPDVEVSFGPGNTLTITLTRSAGGSA [r15_645_JUSTAS]” were, in that order, 1.33 ± 0.059 kcal/mol, 1.25 ± 0.091 kcal/mol and 1.11 ± 0.05 kcal/mol.
The like results for “SAGGSAGMTITSATEVGTTTFNGGSITHYTLTTPSGKTITGEVDPATGTLTISFPETGLSITIPPKSAGGSA [r15_159_JUSTAS]” were, in that order, 1.09 ± 0.023 kcal/mol, 1 ± 0.1 kcal/mol and 0.729 ± 0.19 kcal/mol.
For the sequence “SAGGSAGPEITPPVVVVTFTFKFPDGKTIEIPTTDLEEGEKEIEKIKKPLLEKKNIELVKVTTKPVSAGGSA [r15_140_JUSTAS]”, the “folding stability dG unfold” value in data set [1] was -0.607 ± 0.37 kcal/mol; in data set [2], -0.583 ± 0.36 kcal/mol; in data set [3], -0.389 ± 0.36 kcal/mol.
For “SAGGSAGPKVEVELFPVPPFAPGSEFVLLVKTEDGDVILQRFRVKLEGNEPKIEPLGSIVLKPDELSAGGSA [r15_636_TrMRF]”, the “folding stability dG unfold” value in data set [1] was 1.08 ± 0.036 kcal/mol; in data set [2], 1.78 ± 0.1 kcal/mol; in data set [3] it was 2.09 ± 0.062 kcal/mol.
